Data set [1] has as its target T1, OP (Artificial, UniProt Q9XDM8 SEQ:1-184).
T1 chain: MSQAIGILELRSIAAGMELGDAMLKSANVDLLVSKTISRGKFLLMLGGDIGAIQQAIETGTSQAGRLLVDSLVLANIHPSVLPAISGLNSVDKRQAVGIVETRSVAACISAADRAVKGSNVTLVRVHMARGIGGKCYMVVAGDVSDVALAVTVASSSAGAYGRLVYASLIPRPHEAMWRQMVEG
In words: EMSA; 2:1 ssDNA to capsid. To be noted: tags: C-terminal His6; chain copies: 24 (self-assembled cage). On the technique in general: In EMSA bound probe runs differently from free probe, usually more slowly.

Another data set concerns the target T2, O3-33 (Artificial, UniProt Q9XDM8 SEQ:1-184, R11T,R39P,R66E,R103W,R130F,R163L).
T2 sequence: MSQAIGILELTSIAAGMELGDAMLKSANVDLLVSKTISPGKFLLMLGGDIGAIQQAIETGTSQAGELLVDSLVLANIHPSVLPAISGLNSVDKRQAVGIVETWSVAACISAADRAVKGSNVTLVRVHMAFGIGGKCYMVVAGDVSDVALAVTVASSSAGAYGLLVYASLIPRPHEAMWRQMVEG
In words: EMSA; 2 equiv. O3-33. To be noted: tags: C-terminal His6, pET29b(+)-O3-33 (David Baker), PDB 3VCD, chain copies: 24 (self-assembled cage).

The target of another data set is T3, OP-NoHis6 (Artificial, UniProt Q9XDM8 SEQ:1-188).
T3 chain: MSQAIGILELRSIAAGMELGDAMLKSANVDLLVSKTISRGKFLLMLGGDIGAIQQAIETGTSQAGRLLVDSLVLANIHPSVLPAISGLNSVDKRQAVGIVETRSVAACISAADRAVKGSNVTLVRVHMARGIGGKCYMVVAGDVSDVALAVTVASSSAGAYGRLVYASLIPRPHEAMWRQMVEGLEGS
In words: EMSA; 1:1 molar ratio; siRNA encapsulation also by SEC. To be noted: tags: no His6 (GS C-terminus); chain copies: 24 (self-assembled cage, inferred); siRNA duplex with 2-nt 3' DNA overhangs.

Data set [2] addresses T1, OP. Kind of data set: EMSA; PBS, room temp; near complete binding at 0.5 equiv. cage, 1.97 guests per cage by SEC. To be noted: tags: C-terminal His6; chain copies: 24 (self-assembled cage); siRNA duplex with 2-nt 3' DNA overhangs.
In data set [3] the target is T1, OP. Kind of data set: EMSA; PBS, room temp; near complete binding at 0.5 equiv. cage, 1.98 guests per cage by SEC. To be noted: tags: C-terminal His6; chain copies: 24 (self-assembled cage).
Data set [4] concerns the target T1, OP. In words: EMSA; 1:1 complex in PBS; released over 6 h by 26 uM tRNA at 37 C. To be noted: tags: C-terminal His6; chain copies: 24 (self-assembled cage); label: Atto488 5'.

With CGATTAGCGGTCTGAATAGCGTGG (ssDNA) [ssDNA6], the binding result with OP [1] is “binds”.

On to CCACGCTATTCAGACCGCTAATCG (ssDNA) [ssDNA8], for which, in the data set with OP [1], the binding result is “binds”.

B1: dsRNA (GFP-siRNA-g/GFP-siRNA-p) (dsRNA)
RNA 1: GAACUUCAGGGUCAGCUUGGG
RNA 2: CAAGCUGACCCUGAAGUUCUU
modifications: last two 3' nucleotides deoxy on each strand
With B1, the binding result with O3-33 (siRNA duplex with 2-nt 3' DNA overhangs) is listed as “no binding”; in the data set with OP-NoHis6, “binds”; in the data set with OP [2], “binds”.

CGTGGCGAGCAGCAGCGC (ssDNA) [ssDNA1]: in the data set with OP [1], the binding result is recorded as “binds”.

B2: dsDNA (GFP-g/GFP-p) (dsDNA)
DNA 1: GAACTTCAGGGTCAGCTTGGG
DNA 2: CAAGCTGACCCTGAAGTTCTT
With B2, the binding result is listed as “no binding” in the data set with O3-33 and “binds” with OP [3].

Consider GGTGATGCGATGCTGAAAAGCGC (ssDNA) [ssDNA4], for which, in the data set with OP [1], the binding result was “binds”.

B3: Atto488-dsDNA (A488-DNA/A488-DNA') (dsDNA)
DNA 1: TTAATTAAAGACTTCAAGCGG
DNA 2: GCTTGAAGTCTTTAATTAATT
As to B3, the binding result in the data set with OP [4] is given as “binds”.

The values above are taken from US20210163540, “POLYPEPTIDES SELF-ASSEMBLING INTO NANOPARTICLES” (ETH ZÜRICH, published 2021).
